In the RNAGym collection of RNA variant scans (doi:10.7554/elife.90254):

B1: LINE1-full (parent)
chain: UACGUAGGUGGUUUUCCCCUGAUAGUGCUAAGGGGGCCUGGAAGUUUGGACUGGGCAGAGCUCAACACAGCGUGGCAAAGUGGCUGUGGCUAGACUGCCUCUCUGGAUUCCUCGUCACUCAGCAGGGCAUCUCUGAGAGAAAUGCC

Variants of: B1
Experiment: self-cleavage, relative activity (ratio to wild type); higher = more cleavage; in vitro, sequencing; the parent is a self-cleaving ribozyme

Variant	self-cleavage
UACGUAGGUGGUUUUCCCCUGAUAGUGCUAAGGGGGCCUGGAAGUUUGGACUGGGCAGAGCUCAACACACCGUGGCAAAGUGGCUGUGGAUAGACUGCCUCUCUGGAUUCCUCGUCACUCAGCAGGGCAUCUCUGAGAGAAAUGCC	0.02
UACGUAGGUGGUUUUCCCCUGAUAGUGCUAAGGGGGCCUGGAAGUUUGGACUGGGCAGAGCUCAACACAGAGUGGCAAAGUGGCUGUGGCUAGACUGCCUCUCUGGACUCCUCGUCACUCAGCAGGGCAUCUCUGAGAGAAAUGCC	0.43
UACGUAGGUGGUUUUCCCCUGAUAGUGCUAAGGGGGCCUGGAAGUUUGGACUGGGCAGAGCUCAACACAGGGUGGCAAAGUGGCUGUGGCUAGACUGCCUCUCUGGAUUCCCCGUCACUCAGCAGGGCAUCUCUGAGAGAAAUGCC	0.37
UACGUAGGUGGUUUUCCCCUGAUAGUGCUAAGGGGGCCUGGAAGUUUGGACUGGGCAGAGCUCAACACACCGUGGCAAAGUGGCUGUGGCUAGACUGCCUCUCUGGACUCCUCGUCACUCAGCAGGGCAUCUCUGAGAGAAAUGCC	0.29
UACGUAGGUGGUUUUCCCCUGAUAGUGCUAAGGGGGCCUGGAAGUUUGGACUGGGCAGAGCUCAACACAUCGUGGCAAAGUGGCUGUGGCUAGACUGCCUCACUGGAUUCCUCGUCACUCAGCAGGGCAUCUCUGAGAGAAAUGCC	0.11
UACGUAGGUGGUUUUCCCCUGAUAGUGCUAAGGGGGCCUGGAAGUUUGGACUGGGCAGAGCUCAACACAGAGUGGCAAAGUGUCUGUGGCUAGACUGCCUCUCUGGAUUCCUCGUCACUCAGCAGGGCAUCUCUGAGAGAAAUGCC	0.58
UACGUAGGUGGUUUUCCCCUGAUAGUGCUAAGGGGGCCUGGAAGUUUGGACUGGGCAGAGCUCAACACAGAGUGGCAAAGUGGCUGUGGCUAGACUGCCUCUCUGGAUUCCUCGUCACUCAGCAGGGCAUCUCUGAGGGAAAUGCC	0.33
UACGUAGGUGGUUUUCCCCUGAUAGUGCUAAGGGGGCCUGGAAGUUUGGACUGGGCAGAGCUCAACACAUCGUGGCAAAGUGGCUGUGGCUAGACUACCUCUCUGGAUUCCUCGUCACUCAGCAGGGCAUCUCUGAGAGAAAUGCC	0.01
UACGUAGGUGGUUUUCCCCUGAUAGUGCUAAGGGGGCCUGGAAGUUUGGACUGGGCAGAGCUCAACACAUCGUGGCAAAGUGGCUGUGGCCAGACUGCCUCUCUGGAUUCCUCGUCACUCAGCAGGGCAUCUCUGAGAGAAAUGCC	0.03
UACGUAGGUGGUUUUCCCCUGAUAGUGCUAAGGGGGCCUGGAAGUUUGGACUGGGCAGAGCUCAACACAGUGUGGCAAAGUGGCUGUGGCUGGACUGCCUCUCUGGAUUCCUCGUCACUCAGCAGGGCAUCUCUGAGAGAAAUGCC	0.06
UACGUAGGUGGUUUUCCCCUGAUAGUGCUAAGGGGGCCUGGAAGUUUGGACUGGGCAGAGCUCAACACAGUGUGGCAGAGUGGCUGUGGCUAGACUGCCUCUCUGGAUUCCUCGUCACUCAGCAGGGCAUCUCUGAGAGAAAUGCC	0.41
UACGUAGGUGGUUUUCCCCUGAUAGUGCUAAGGGGGCCUGGAAGUUUGGACUGGGCAGAGCUCAACACAGGGUGGCAAAGAGGCUGUGGCUAGACUGCCUCUCUGGAUUCCUCGUCACUCAGCAGGGCAUCUCUGAGAGAAAUGCC	0.28
UACGUAGGUGGUUUUCCCCUGAUAGUGCUAAGGGGGCCUGGAAGUUUGGACUGGGCAGAGCUCAACACAGGGUGGCAAAGCGGCUGUGGCUAGACUGCCUCUCUGGAUUCCUCGUCACUCAGCAGGGCAUCUCUGAGAGAAAUGCC	0.27
UACGUAGGUGGUUUUCCCCUGAUAGUGCUAAGGGGGCCUGGAAGUUUGGACUGGGCAGAGCUCAACACAGAGUGGCAAAGUGGCUGUGGCUAGACUGCCUCUCUGGAUUCCUCGUCACUCAGCAGGGCAUCUCUGAGAGAAAUGUC	0.18
UACGUAGGUGGUUUUCCCCUGAUAGUGCUAAGGGGGCCUGGAAGUUUGGACUGGGCAGAGCUCAACACAUCGUGGCAAAGUGGCUGUGGCUGGACUGCCUCUCUGGAUUCCUCGUCACUCAGCAGGGCAUCUCUGAGAGAAAUGCC	0.08
UACGUAGGUGGUUUUCCCCUGAUAGUGCUAAGGGGGCCUGGAAGUUUGGACUGGGCAGAGCUCAACACAACGUGGCAAAGUGGCUGUGGCUAGACUGCCUCUCUGGAUUCCUCGUCACUCAGCAGGGCAACUCUGAGAGAAAUGCC	0.15
UACGUAGGUGGUUUUCCCCUGAUAGUGCUAAGGGGGCCUGGAAGUUUGGACUGGGCAGAGCUCAACACAGUGUGGCGAAGUGGCUGUGGCUAGACUGCCUCUCUGGAUUCCUCGUCACUCAGCAGGGCAUCUCUGAGAGAAAUGCC	0.86
UACGUAGGUGGUUUUCCCCUGAUAGUGCUAAGGGGGCCUGGAAGUUUGGACUGGGCAGAGCUCAACACAGAGUGGCAAAGUGGCUGUGGCUAGACUGCCUCUCUGGAUUCCUCGUCACUCAGCAGGGCGUCUCUGAGAGAAAUGCC	0.23
UACGUAGGUGGUUUUCCCCUGAUAGUGCUAAGGGGGCCUGGAAGUUUGGACUGGGCAGAGCUCAACACAGAGUGGCAAAGUGGCUGUGGCUAGACUGCCUCUCUGGAUUCCUCGUCACUCAGCAGGGUAUCUCUGAGAGAAAUGCC	0.18
UACGUAGGUGGUUUUCCCCUGAUAGUGCUAAGGGGGCCUGGAAGUUUGGACUGGGCAGAGCUCAACACAGAGUGGCAAAGUGGCUGUGGCUAGACUGCCUCUCUGGAUUCCUCGUCACUCAACAGGGCAUCUCUGAGAGAAAUGCC	0.12

Variant	self-cleavage
UACGUAGGUGGUUUUCCCCUGAUAGUGCUAAGGGGGCCUGGAAGUUUGGACUGGGCAGAGCUCAACACAGGGUGGCAAAGUGGCUGUGGCUAGACUGCCUCUCUGGAUUCCUCGUCACUCAGCAGGGCAUCUCUGAGAGUAAUGCC	0.53
UACGUAGGUGGUUUUCCCCUGAUAGUGCUAAGGGGGCCUGGAAGUUUGGACUGGGCAGAGCUCAACACAUCGUGGCAAAGUGGCUGUGGCUAGACUGCCUCUCUGGAUUCCACGUCACUCAGCAGGGCAUCUCUGAGAGAAAUGCC	0.05
UACGUAGGUGGUUUUCCCCUGAUAGUGCUAAGGGGGCCUGGAAGUUUGGACUGGGCAGAGCUCAACACAUCGUGGCAAAGUGGCUGUGGCUAGACUGCCUCUCUGGAUUCCCCGUCACUCAGCAGGGCAUCUCUGAGAGAAAUGCC	0.06
UACGUAGGUGGUUUUCCCCUGAUAGUGCUAAGGGGGCCUGGAAGUUUGGACUGGGCAGAGCUCAACACAGAGUGGCAAAGUGGCUGUGGCUAGACUGCCUCUCUGGAUUCCUCGUCACUCAGCAGGGCAACUCUGAGAGAAAUGCC	0.17
UACGUAGGUGGUUUUCCCCUGAUAGUGCUAAGGGGGCCUGGAAGUUUGGACUGGGCAGAGCUCAACACAGAGUGGCAAAGUGGCUGUGGCUAGACUGCCUCUCUGGAUUCCUCGUCACUCAGCAGGGCAUCCCUGAGAGAAAUGCC	0.15
UACGUAGGUGGUUUUCCCCUGAUAGUGCUAAGGGGGCCUGGAAGUUUGGACUGGGCAGAGCUCAACACACCGUGGCAAAGUGGCUGUGGCUAGACUGCCUCACUGGAUUCCUCGUCACUCAGCAGGGCAUCUCUGAGAGAAAUGCC	0.07
UACGUAGGUGGUUUUCCCCUGAUAGUGCUAAGGGGGCCUGGAAGUUUGGACUGGGCAGAGCUCAACACAGGGUGGCGAAGUGGCUGUGGCUAGACUGCCUCUCUGGAUUCCUCGUCACUCAGCAGGGCAUCUCUGAGAGAAAUGCC	0.4
UACGUAGGUGGUUUUCCCCUGAUAGUGCUAAGGGGGCCUGGAAGUUUGGACUGGGCAGAGCUCAACACAGUGUGGCAAAGUGGCUGUGGCUAGACUGCCUCUCUGGAUUCCUCGUCACUCAGCAGGGCAUCUCUGAGUGAAAUGCC	1.04
UACGUAGGUGGUUUUCCCCUGAUAGUGCUAAGGGGGCCUGGAAGUUUGGACUGGGCAGAGCUCAACACAUCGUGGCAAAGUGGCUGUGGCUAGACUGCCUCUCUGGAUUCCUCGUCACCCAGCAGGGCAUCUCUGAGAGAAAUGCC	0.07
UACGUAGGUGGUUUUCCCCUGAUAGUGCUAAGGGGGCCUGGAAGUUUGGACUGGGCAGAGCUCAACACAUCGUGGCAAAGUGGCUGUGGCUAGACUGCCUCUCUGGAUUCCUCGUCACACAGCAGGGCAUCUCUGAGAGAAAUGCC	0.03
UACGUAGGUGGUUUUCCCCUGAUAGUGCUAAGGGGGCCUGGAAGUUUGGACUGGGCAGAGCUCAACACAGUGUGGCAAAGUGGCUGUGGCUAGACUGCCUCUCUGGAUUCCUCGUCUCUCAGCAGGGCAUCUCUGAGAGAAAUGCC	0.98
UACGUAGGUGGUUUUCCCCUGAUAGUGCUAAGGGGGCCUGGAAGUUUGGACUGGGCAGAGCUCAACACAGUGUGGCAAAGUGGCUGUGGCUAGACUGCCUCUCUGGAUUCCUCGUCACUCUGCAGGGCAUCUCUGAGAGAAAUGCC	0.93
UACGUAGGUGGUUUUCCCCUGAUAGUGCUAAGGGGGCCUGGAAGUUUGGACUGGGCAGAGCUCAACACACCGUGGCAAAGUGGCUGUGGCUAGACUGCCUCUCUGGAUUCCUCGUCACUCAGCAGGGCAUCUCUGAGAGAAAUGCC	0.15
UACGUAGGUGGUUUUCCCCUGAUAGUGCUAAGGGGGCCUGGAAGUUUGGACUGGGCAGAGCUCAACACAUCGUGGCAAAGUGGCUGUGGCUAGACUGCCUCUCUGGAUUCCUCGUCACUCAGCAGGGCAUCUCUGAGAGAAAUGCC	0.05
UACGUAGGUGGUUUUCCCCUGAUAGUGCUAAGGGGGCCUGGAAGUUUGGACUGGGCAGAGCUCAACACAGAGUGGCAAAGUGGCUGUGGCUAGACUGCCUCUCUGGAUUCCUCGACACUCAGCAGGGCAUCUCUGAGAGAAAUGCC	0.16
UACGUAGGUGGUUUUCCCCUGAUAGUGCUAAGGGGGCCUGGAAGUUUGGACUGGGCAGAGCUCAACACACCGUGGCAAAGUGGCUGUGGCUAGACUGCCUCUCUGGAUUCCUCGUCACUCAGCAGGGCAUCUCUGAGAGAAGUGCC	0.14
UACGUAGGUGGUUUUCCCCUGAUAGUGCUAAGGGGGCCUGGAAGUUUGGACUGGGCAGAGCUCAACACAGUGUGGCAAUGUGGCUGUGGCUAGACUGCCUCUCUGGAUUCCUCGUCACUCAGCAGGGCAUCUCUGAGAGAAAUGCC	0.74
UACGUAGGUGGUUUUCCCCUGAUAGUGCUAAGGGGGCCUGGAAGUUUGGACUGGGCAGAGCUCAACACACCGUGGCAAAGUGGCUGUGGCUAGACUGCCUCUCUGGAUUCCUCGUCACUCAGCAGGGCAUCUCUGAGAGAAAUACC	0.15
UACGUAGGUGGUUUUCCCCUGAUAGUGCUAAGGGGGCCUGGAAGUUUGGACUGGGCAGAGCUCAACACAACGUGGCAAAGUGGCUGUGGCUAGACUGCCUCUCUGGAUUCCUCGCCACUCAGCAGGGCAUCUCUGAGAGAAAUGCC	0.16
